Data reported in US20260274928A1.

Molecular target: 13-strain panel of SARS-CoV-2 variant lineages (RBDs)
Assay: SPR, Fab on captured His-AviTag RBD, single-cycle kinetics

B1: S2V29-v37.2 Fab (Fab, V domains shown)
VH: EVQLVESGGSVVQPGRALRLSCAASGITFSSFGMYWVRQAPGKGLEWLGYIAYDGSDTYYADSVKGRFTISRDNSKNTLYLQMNSLRIEDTAVYYCAKDYYPLLSYYYGLDVWGQGTTVTVSS
VL: QSVLTQPRSVSGSPGQSVTISCTGTSSDVGAYNYVSWYQQHPGKAPKFMIYDVDQRPSGVPDRFSGSKSGNTASLIISGLQAEDEADYYCSSYAGSYIWVFGGGTQLTVL
  Kd: 50 to 5000 pM
  median KD: 260 pM
